# B1: wild-type UCHL5 (UCHL5^WT), C-terminal 6-His tag (protein)
# chain: MTGNAGEWCLMESDPGVFTELIKGFGCRGAQVEEIWSLEPENFEKLKPVHGLIFLFKWQPGEEPAGSVVQDSRLDTIFFAKQVINNACATQAIVSVLLNCTHQDVHLGETLSEFKEFSQSFDAAMKGLALSNSDVIRQVHNSFARQQMFEFDTKTSAKEEDAFHFVSYVPVNGRLYELDGLREGPIDLGACNQDDWISAVRPVIEKRIQKYSEGEIRFNLMAIVSDRKMIYEQKIAELQRQLAEEEPMDTDQGNSMLSAIQSEVAKNQMLIEEEVQKLKRYKIENIRRKHNYLPFIMELLKTLAEHQQLIPLVEKAKEKQNAKKAQETKHHHHHH
# B2: wild-type UCHL1 (UCHL1^WT), C-terminal 6-His tag (protein)
# chain: MQLKPMEINPEMLNKVLSRLGVAGQWRFVDVLGLEEESLGSVPAPACALLLLFPLTAQHENFRKKQIEELKGQEVSPKVYFMKQTIGNSCGTIGLIHAVANNQDKLGFEDGSVLKQFLSETEKMSPEDRAKCFEKNEAIQAAHDAVAQEGQCRVDDKVNFHFILFNNVDGHLYELDGRMPFPVNHGASSEDTLLKDAAKVCREFTEREQGEVRFSAVALCHHHHHH
# Biological target: Ub vinyl sulfone HA-tagged probe (Ub-VS-HA; Cat #U-212, Boston Biochem), P0CG48
# Sequence (P0CG48 whole entry, looked up): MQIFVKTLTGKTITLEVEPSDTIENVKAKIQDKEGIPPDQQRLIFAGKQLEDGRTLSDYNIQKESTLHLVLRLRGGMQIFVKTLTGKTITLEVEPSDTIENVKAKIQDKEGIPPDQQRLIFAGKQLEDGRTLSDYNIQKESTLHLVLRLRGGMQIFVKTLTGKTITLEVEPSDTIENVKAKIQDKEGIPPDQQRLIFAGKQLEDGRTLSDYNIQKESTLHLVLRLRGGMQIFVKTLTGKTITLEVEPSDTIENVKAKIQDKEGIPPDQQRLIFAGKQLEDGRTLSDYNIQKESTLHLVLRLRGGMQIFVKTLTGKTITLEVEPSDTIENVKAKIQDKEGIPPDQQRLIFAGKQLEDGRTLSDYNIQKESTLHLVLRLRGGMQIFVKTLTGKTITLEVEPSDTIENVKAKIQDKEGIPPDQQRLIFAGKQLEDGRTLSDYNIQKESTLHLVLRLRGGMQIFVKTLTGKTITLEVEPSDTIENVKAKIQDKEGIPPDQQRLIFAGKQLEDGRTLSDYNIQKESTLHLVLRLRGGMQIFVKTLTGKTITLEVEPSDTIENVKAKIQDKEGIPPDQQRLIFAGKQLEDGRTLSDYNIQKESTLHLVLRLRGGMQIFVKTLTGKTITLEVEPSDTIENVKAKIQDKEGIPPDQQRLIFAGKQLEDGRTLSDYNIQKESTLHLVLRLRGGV
protein,measurement,value
B1,modification by the suicide probe Ub-VS (immunoblot),UCHL5^WT was only partially modified at 30 minutes
B2,modification by the suicide probe Ub-VS (immunoblot),"UCHL1^WT readily reacted with Ub-VS, nearing completion after 30 minutes"

# Source: patent US20240109958
